The values that follow come from patent US11833164B2, “Methods of treating Fabry disease in patients having a mutation in the GLA gene” (Amicus Therapeutics, Inc., priority 2019, dated 2023).

The assay has as its system mutant form of α-Gal A expressed in HEK-293 cells. The experiment in a line: HEK assay (GLP HEK / Migalastat Amenability Assay): α-Gal A activity in lysates of transiently transfected HEK-293 cells incubated with or without 10 μM migalastat. The settings on record: for Absolute increase (% WT) / Relative increase: 10 μM migalastat versus baseline; for Baseline α-Gal A activity (% WT): absence of migalastat; for Baseline α-Gal A activity (% WT) / 10 μM migalastat α-Gal A activity (% WT): percentage of baseline wild-type α-Gal A activity; for Baseline α-Gal A activity (% WT) / Baseline α-Gal A activity / 10 μM migalastat α-Gal A activity / 10 μM migalastat α-Gal A activity (% WT): mean ± SEM; for Baseline α-Gal A activity / 10 μM migalastat α-Gal A activity: lysates of HEK-293 cells transiently transfected with the mutant form; for Baseline α-Gal A activity: incubated 5 days in absence of migalastat; for 10 μM migalastat α-Gal A activity: incubated 5 days with 10 μM migalastat; for 10 μM migalastat α-Gal A activity (% WT): with 10 μM migalastat, 5 days. It counts as cell-based, human. The method, boiled down: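 Activity reported as 4-MU released (nmol/mg/hr), mean±SEM, from lysates of transiently transfected HEK-293 cells expressing mutant α-Gal A, cultured with or without 10 μM migalastat.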

B1: F337L (protein)
chain: MQLRNPELHLGCALALRFLALVSWDIPGARALDNGLARTPTMGWLHWERFMCNLDCQEEPDSCISEKLFMEMAELMVSEGWKDAGYEYLCIDDCWMAPQRDSEGRLQADPQRFPHGIRQLANYVHSKGLKLGIYADVGNKTCAGFPGSFGYYDIDAQTFADWGVDLLKFDGCYCDSLENLADGYKHMSLALNRTGRSIVYSCEWPLYMWPFQKPNYTEIRQYCNHWRNFADIDDSWKSIKSILDWTSFNQERIVDVAGPGGWNDPDMLVIGNFGLSWNQQVTQMALWAIMAAPLFMSNDLRHISPQAKALLQDKDVIAINQDPLGKQGYQLRQGDNLEVWERPLSGLAWAVAMINRQEIGGPRSYTIAVASLGKGVACNPACFITQLLPVKRKLGFYEWTSRLRSHINPTGTVLLQLENTMQMSLKDLL
Turning to B1, the “Absolute increase (% WT)” value is reported as 20.8 % WT, the Relative increase turned out to be 1.4, the “Baseline α-Gal A activity (% WT)” value is reported as 57.8 ± 4.8 % WT and the “Baseline α-Gal A activity” value is 23197 ± 2254 nmol/mg/h. Moreover, the “10 μM migalastat α-Gal A activity” value is 31963 ± 2641 nmol/mg/h and the “10 μM migalastat α-Gal A activity (% WT)” value is 78.6 ± 3.1 % WT.

B2: E338D (protein)
chain: MQLRNPELHLGCALALRFLALVSWDIPGARALDNGLARTPTMGWLHWERFMCNLDCQEEPDSCISEKLFMEMAELMVSEGWKDAGYEYLCIDDCWMAPQRDSEGRLQADPQRFPHGIRQLANYVHSKGLKLGIYADVGNKTCAGFPGSFGYYDIDAQTFADWGVDLLKFDGCYCDSLENLADGYKHMSLALNRTGRSIVYSCEWPLYMWPFQKPNYTEIRQYCNHWRNFADIDDSWKSIKSILDWTSFNQERIVDVAGPGGWNDPDMLVIGNFGLSWNQQVTQMALWAIMAAPLFMSNDLRHISPQAKALLQDKDVIAINQDPLGKQGYQLRQGDNFDVWERPLSGLAWAVAMINRQEIGGPRSYTIAVASLGKGVACNPACFITQLLPVKRKLGFYEWTSRLRSHINPTGTVLLQLENTMQMSLKDLL
On to B2, for which the “Absolute increase (% WT)” value was determined as 15.2 % WT, the Relative increase amounted to 1.2, the “Baseline α-Gal A activity (% WT)” value is recorded as 65.7 ± 4.9 % WT and the “Baseline α-Gal A activity” value worked out at 25700 ± 1958 nmol/mg/h. Besides, the “10 μM migalastat α-Gal A activity” value is 31632 ± 1825 nmol/mg/h and the “10 μM migalastat α-Gal A activity (% WT)” value is 80.9 ± 4.6 % WT.

B3: E341A (protein)
chain: MQLRNPELHLGCALALRFLALVSWDIPGARALDNGLARTPTMGWLHWERFMCNLDCQEEPDSCISEKLFMEMAELMVSEGWKDAGYEYLCIDDCWMAPQRDSEGRLQADPQRFPHGIRQLANYVHSKGLKLGIYADVGNKTCAGFPGSFGYYDIDAQTFADWGVDLLKFDGCYCDSLENLADGYKHMSLALNRTGRSIVYSCEWPLYMWPFQKPNYTEIRQYCNHWRNFADIDDSWKSIKSILDWTSFNQERIVDVAGPGGWNDPDMLVIGNFGLSWNQQVTQMALWAIMAAPLFMSNDLRHISPQAKALLQDKDVIAINQDPLGKQGYQLRQGDNFEVWARPLSGLAWAVAMINRQEIGGPRSYTIAVASLGKGVACNPACFITQLLPVKRKLGFYEWTSRLRSHINPTGTVLLQLENTMQMSLKDLL
Regarding B3, the “Absolute increase (% WT)” value was determined as 11.6 % WT, the Relative increase amounted to 4.1, the “Baseline α-Gal A activity (% WT)” value is reported as 3.8 ± 0.4 % WT and the “Baseline α-Gal A activity” value came to 1444 ± 159 nmol/mg/h. Further, the “10 μM migalastat α-Gal A activity” value came to 5855 ± 690 nmol/mg/h and the “10 μM migalastat α-Gal A activity (% WT)” value came out at 15.4 ± 1.3 % WT.

B4: F337V (protein)
chain: MQLRNPELHLGCALALRFLALVSWDIPGARALDNGLARTPTMGWLHWERFMCNLDCQEEPDSCISEKLFMEMAELMVSEGWKDAGYEYLCIDDCWMAPQRDSEGRLQADPQRFPHGIRQLANYVHSKGLKLGIYADVGNKTCAGFPGSFGYYDIDAQTFADWGVDLLKFDGCYCDSLENLADGYKHMSLALNRTGRSIVYSCEWPLYMWPFQKPNYTEIRQYCNHWRNFADIDDSWKSIKSILDWTSFNQERIVDVAGPGGWNDPDMLVIGNFGLSWNQQVTQMALWAIMAAPLFMSNDLRHISPQAKALLQDKDVIAINQDPLGKQGYQLRQGDNVEVWERPLSGLAWAVAMINRQEIGGPRSYTIAVASLGKGVACNPACFITQLLPVKRKLGFYEWTSRLRSHINPTGTVLLQLENTMQMSLKDLL
Take B4: the “Absolute increase (% WT)” value turned out to be 31.1 % WT, the Relative increase is 1.4, the “Baseline α-Gal A activity (% WT)” value is given as 65.9 ± 4.1 % WT and the “Baseline α-Gal A activity” value stood at 29582 ± 2747 nmol/mg/h. The “10 μM migalastat α-Gal A activity” value came out at 42718 ± 2776 nmol/mg/h and the “10 μM migalastat α-Gal A activity (% WT)” value was 97 ± 4.6 % WT.

B5: E338G (protein)
chain: MQLRNPELHLGCALALRFLALVSWDIPGARALDNGLARTPTMGWLHWERFMCNLDCQEEPDSCISEKLFMEMAELMVSEGWKDAGYEYLCIDDCWMAPQRDSEGRLQADPQRFPHGIRQLANYVHSKGLKLGIYADVGNKTCAGFPGSFGYYDIDAQTFADWGVDLLKFDGCYCDSLENLADGYKHMSLALNRTGRSIVYSCEWPLYMWPFQKPNYTEIRQYCNHWRNFADIDDSWKSIKSILDWTSFNQERIVDVAGPGGWNDPDMLVIGNFGLSWNQQVTQMALWAIMAAPLFMSNDLRHISPQAKALLQDKDVIAINQDPLGKQGYQLRQGDNFGVWERPLSGLAWAVAMINRQEIGGPRSYTIAVASLGKGVACNPACFITQLLPVKRKLGFYEWTSRLRSHINPTGTVLLQLENTMQMSLKDLL
With B5, the “Absolute increase (% WT)” value was 16.8 % WT, the Relative increase turned out to be 2.0, the “Baseline α-Gal A activity (% WT)” value is 17.1 ± 1.1 % WT and the “Baseline α-Gal A activity” value was 6415 ± 391 nmol/mg/h. The “10 μM migalastat α-Gal A activity” value was 12588 ± 538 nmol/mg/h and the “10 μM migalastat α-Gal A activity (% WT)” value was determined as 33.9 ± 1.8 % WT.

B6: V339M (protein)
chain: MQLRNPELHLGCALALRFLALVSWDIPGARALDNGLARTPTMGWLHWERFMCNLDCQEEPDSCISEKLFMEMAELMVSEGWKDAGYEYLCIDDCWMAPQRDSEGRLQADPQRFPHGIRQLANYVHSKGLKLGIYADVGNKTCAGFPGSFGYYDIDAQTFADWGVDLLKFDGCYCDSLENLADGYKHMSLALNRTGRSIVYSCEWPLYMWPFQKPNYTEIRQYCNHWRNFADIDDSWKSIKSILDWTSFNQERIVDVAGPGGWNDPDMLVIGNFGLSWNQQVTQMALWAIMAAPLFMSNDLRHISPQAKALLQDKDVIAINQDPLGKQGYQLRQGDNFEMWERPLSGLAWAVAMINRQEIGGPRSYTIAVASLGKGVACNPACFITQLLPVKRKLGFYEWTSRLRSHINPTGTVLLQLENTMQMSLKDLL
Turning to B6, the “Absolute increase (% WT)” value is reported as 18.2 % WT, the Relative increase is on record as 1.3, the “Baseline α-Gal A activity (% WT)” value was 63.5 ± 2.9 % WT and the “Baseline α-Gal A activity” value was determined as 26113 ± 1116 nmol/mg/h. Moreover, the “10 μM migalastat α-Gal A activity” value stood at 33867 ± 2526 nmol/mg/h and the “10 μM migalastat α-Gal A activity (% WT)” value stood at 81.7 ± 5 % WT.

B7: E338A (protein)
chain: MQLRNPELHLGCALALRFLALVSWDIPGARALDNGLARTPTMGWLHWERFMCNLDCQEEPDSCISEKLFMEMAELMVSEGWKDAGYEYLCIDDCWMAPQRDSEGRLQADPQRFPHGIRQLANYVHSKGLKLGIYADVGNKTCAGFPGSFGYYDIDAQTFADWGVDLLKFDGCYCDSLENLADGYKHMSLALNRTGRSIVYSCEWPLYMWPFQKPNYTEIRQYCNHWRNFADIDDSWKSIKSILDWTSFNQERIVDVAGPGGWNDPDMLVIGNFGLSWNQQVTQMALWAIMAAPLFMSNDLRHISPQAKALLQDKDVIAINQDPLGKQGYQLRQGDNFAVWERPLSGLAWAVAMINRQEIGGPRSYTIAVASLGKGVACNPACFITQLLPVKRKLGFYEWTSRLRSHINPTGTVLLQLENTMQMSLKDLL
For the molecule B7, the “Absolute increase (% WT)” value amounted to 24.8 % WT, the Relative increase came out at 1.7, the “Baseline α-Gal A activity (% WT)” value came out at 39.5 ± 2.3 % WT and the “Baseline α-Gal A activity” value turned out to be 15626 ± 769 nmol/mg/h. Further, the “10 μM migalastat α-Gal A activity” value is 25719 ± 1376 nmol/mg/h and the “10 μM migalastat α-Gal A activity (% WT)” value stood at 64.3 ± 3 % WT.

B8: F337Y (protein)
chain: MQLRNPELHLGCALALRFLALVSWDIPGARALDNGLARTPTMGWLHWERFMCNLDCQEEPDSCISEKLFMEMAELMVSEGWKDAGYEYLCIDDCWMAPQRDSEGRLQADPQRFPHGIRQLANYVHSKGLKLGIYADVGNKTCAGFPGSFGYYDIDAQTFADWGVDLLKFDGCYCDSLENLADGYKHMSLALNRTGRSIVYSCEWPLYMWPFQKPNYTEIRQYCNHWRNFADIDDSWKSIKSILDWTSFNQERIVDVAGPGGWNDPDMLVIGNFGLSWNQQVTQMALWAIMAAPLFMSNDLRHISPQAKALLQDKDVIAINQDPLGKQGYQLRQGDNYEVWERPLSGLAWAVAMINRQEIGGPRSYTIAVASLGKGVACNPACFITQLLPVKRKLGFYEWTSRLRSHINPTGTVLLQLENTMQMSLKDLL
As to B8, the “Absolute increase (% WT)” value worked out at 21.6 % WT, the Relative increase worked out at 1.4, the “Baseline α-Gal A activity (% WT)” value was determined as 52.3 ± 4.2 % WT and the “Baseline α-Gal A activity” value was 21577 ± 1930 nmol/mg/h. In addition, the “10 μM migalastat α-Gal A activity” value stood at 30991 ± 2695 nmol/mg/h and the “10 μM migalastat α-Gal A activity (% WT)” value turned out to be 73.9 ± 3.2 % WT.
